In publication PMC6698653:

T1: MmLARK (Mus musculus, UniProt Q8C7Q4 1-361)
T1 sequence: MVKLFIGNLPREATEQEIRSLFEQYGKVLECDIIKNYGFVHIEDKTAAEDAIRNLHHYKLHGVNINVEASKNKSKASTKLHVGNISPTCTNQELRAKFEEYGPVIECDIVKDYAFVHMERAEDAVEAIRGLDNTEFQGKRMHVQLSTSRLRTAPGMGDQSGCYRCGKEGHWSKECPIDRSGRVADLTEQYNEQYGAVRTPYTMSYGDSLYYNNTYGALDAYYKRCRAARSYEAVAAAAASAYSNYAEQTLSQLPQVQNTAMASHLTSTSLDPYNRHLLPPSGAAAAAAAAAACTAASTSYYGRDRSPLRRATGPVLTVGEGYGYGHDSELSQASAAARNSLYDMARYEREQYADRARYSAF


What was measured:
HsLARK = HsLARK (Homo sapiens, UniProt Q9BWF3 1-364); test: EMSA
MmLARK = target: T1, MmLARK; test: EMSA
BmLARK [1] = target: T2, BmLARK (Bombyx mori (cDNA from Bm12 cells), UniProt Q5I7M6 1-343); test: MST
BmLARK [2] = target: T2, BmLARK; test: EMSA
BmLARK ZnF = BmLARK ZnF (Bombyx mori, UniProt Q5I7M6 155-343); test: EMSA
DmLARK = DmLARK (Drosophila melanogaster, UniProt Q94901 1-352); test: EMSA
Sequence of DmLARK (Q94901 whole entry): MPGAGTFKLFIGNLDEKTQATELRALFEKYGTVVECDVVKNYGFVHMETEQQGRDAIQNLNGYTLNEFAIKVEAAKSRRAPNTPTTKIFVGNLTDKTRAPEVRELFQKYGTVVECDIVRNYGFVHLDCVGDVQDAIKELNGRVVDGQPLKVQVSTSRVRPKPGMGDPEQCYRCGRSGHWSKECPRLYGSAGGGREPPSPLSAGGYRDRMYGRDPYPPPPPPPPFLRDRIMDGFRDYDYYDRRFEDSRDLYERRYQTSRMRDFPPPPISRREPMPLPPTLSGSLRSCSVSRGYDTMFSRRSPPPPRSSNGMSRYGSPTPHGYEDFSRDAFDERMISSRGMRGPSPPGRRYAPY

| Binder | Kd (BmLARK [1]) | binding result (BmLARK [2]) | further results |
| --- | --- | --- | --- |
| TTATGGGGAGGGTGGGGAGGGTGGGGAAGG (structured_DNA) [c-MYC G4] | 269 nM | – | binding result (HsLARK): binds; binding result (MmLARK): binds |
| CCAGTGCGATGCGCGAGTGAGCCGAGTAGCAGTGCAACAA (ssDNA) [BmPOUM2 ssDNA (mutant G4)] | – | no binding | – |
| GGCAGTGTCAGTGAGACAGAGCAGTGTGTGCGG (ssDNA) [159 ssDNA (mutant G4)] | – | no binding | – |
| GTGTCGCAGTGCCACAGTGTGCTGAGCAGTGTCCGCG (ssDNA) [142 ssDNA (mutant G4)] | – | no binding | – |
| GCGAGGGCGGGGGAGAGGGGAGGGGCGCG (structured_DNA) [HIF-1a G4] | 131 nM | – | – |
| GGCGGGGGCGGGGGGACGGGGCGGGGGGGGCGG (structured_DNA) [159 G4] | 114 nM | – | – |
| GGTACGGGGGTGCAGGGGCGGCGGGGGGCGCGGGGTGG (structured_DNA) [558 G4] | 120 nM | – | – |
| CCAGTGCGGGGCGCGAGGGGGCCGAGGGGCGGGGCAACAA (structured_DNA) [BmPOUM2 G4] | 111 nM | – | binding result (HsLARK): binds; binding result (BmLARK ZnF): no binding; binding result (DmLARK): binds; binding result (MmLARK): binds |
| TTTTTCGGGCGGGCGCGAGGGAGGGG (structured_DNA) [c-kit G4] | 126 nM | – | binding result (HsLARK): binds; binding result (MmLARK): binds |
| GGTACTGTGATGCAAGTGCGGCAGTGAGCGCAGTGTGG (ssDNA) [558 ssDNA (mutant G4)] | – | no binding | – |
| GGGTCGCGGGGCCACGGGGGGCGGGGCGGGGGCCGCG (structured_DNA) [142 G4] | 107 nM | – | – |
